# Source: the DeepSol protein solubility set
# Assay: soluble on expression in E. coli; label from the status in PepcDB or PDB records
row,Sequence,soluble on expression in E. coli
1,MSLTQHTRNFSFKVLTINTHKGFTAFNKRFILPELRDAVRTVGADIVCLQEVMGAHEVHPLHIENWPDTTHYEFLADTMWSDFAYGRNAVYPEGHHGNAVLSRYPIEHYENRDVSVGGSEKRGVLYCRITPPMLNRPIHVMCVHLGLRESHRQAQLTMLAGWVNALPESEPVLVAGDFNDWRQKAGPPLNAAGLEEIFTRAHGRPARTFPVSMPLLRLDRIYVKNANASSPTALPLRNWRHLSDHAPLSAEIHLEGHHHHHH,soluble
2,MGSDKIHHHHHHMKNNHTLIIGGGIVGATLALKLAQDNKPVTLIDARPKRSEADWQQVLGQRDARVYALSLASIHLLKEVGAWQKIAASERKADYSQMQVWQLNGMGELLFGDSGDSNSSTGNSNVANNNDNTEPKMLGSMVEPAVIEHALWQRLSAPDVSQYLTVIAGHKVVDMDWLGATQGYRVTLDNGDVIDARLLVGADGRGSFVRKQAGIELDVLDYNQTAICCAIQTEKPHLATARQAMLPTGTLALLPLADITDEDKANPQHWQSIVWTLPRNQALALVAEHPCYIADKLAAASHYELGAIHKIESIASFPLAAQQAKSYVADNLVLIGDAAHGVHPLAGQGLNLGMLDVRALSKQLAHDYNRSGGTLWGANQTLRSYERLRRPHNSLMMHSFSALNWLFAGSLAQIRPVQQLRNEGMYRVSKIKPLMRLFAKQASGV,not soluble
3,SLSIELDLQLAVENEHGLPSEAEFALWLTRTITPFQAQAEVTVRIVDEAESHALNLNYRGKDKPTNVLSFPFEAPSGMEMDLLGDLVICRQVVEREAIEQNKPLQAHWAHMVVHGSLHLLGYDHIEDDEAEEMESLETEIMQEMGFTDPYLAEKE,not soluble
4,METPLEKALTTMVTTFHKYSGREGSKLTLSRKELKELIKKELCLGEMKESSIDDLMKSLDKNSDQEIDFKEYSVFLTMLCMAYNDFFLEDNK,soluble
5,SASMAGPDHLFNLRNHFYLGAYQAAINNSEIPNLSQEDIVERDCLVHRAYIALGSYQLVISEIDEAAATPLQAVKLLAMYLSSPENKESTISSLREWLADPTVGNNAIIRLIAGTIFMHEEDYNEALKHTHSGGTMDLHALNVQIFIKMHRSDFAEKQLRVMQQIDEDHTLTQLASAWLNLAVGGSKIQEAYLIFQDFSEKYPMTSLILNGKAVCCMHMGNFEEAETLLLEALNKDAKDPETLANLVVCSLHVGKSSSRYLNQLKLSHPEHVLVKRAASAEDNFERALQSFA,soluble
6,MADDVDNDDKLEKPVDLIWGCELNEQNKTFEFKVEDDEEKCEHQLALRTVCLGDKAKDEFHIVEIVDQEEGAEKVVPIATLKPSILPMATMVGIELDPPVTFRLKAGSGPLYISGQHVAM,soluble
7,MGSDKIHHHHHHMLDLNHGSGCQYQKPDRDPGITVAVNAAIDAALVVRNRSQVARQYVSTSGIGRECLRQIQYDYLAVPKDEGRDFEPKTLRIFEAGHRGEDVVAAWLRAAGFDLRTERRDGRQFGFSALNGRFKGHIDGCLVGGPVAMAYPALWENKALGVSSWKDVVKRGVVLSKPVYAAQLALYQAYMDLPAPTLFTALNRDTWEIHCELVPFDAALAQTMSDRAVQVVRASDAQELLPRASAERTSVICRGGKTAGGWHGACSWQDRCWGRCR,not soluble
8,MGHHHHHHSHMTPGVVHASPPQSQRVPRQAPCEWAIRNIGQKPKEPNCHNCGTHIGLRSKTLRGTPNYLPIRQDTHPPSVIFCLAGVGVPGLPV,not soluble
9,MIERSLNATEKAIESIREGELVRRHTDLELRDMQISMNEDFDRIRGMMHELDEQIHKDRSGNSKWMNQKMEKAKATADQALASTLMVKDVQLLEKKVNILKESVVQVNKSFYKYEKDVDMNDLMDQVIDMVHRTEKKEQDALEAHATDEQAIGKAFRGAIEGLYGLKSSNSKVMEEAKLLAGEMRVFRDAASNKNFHTMISRIASNTATSGVPLKYSSGPESSFSTSAYTSFSKSANNSSMSGSN,not soluble
10,MAHHHHHHMWTAPPSLRTVRPIFLPLNVVANSTSSLLLHPGQLDLKHVEGYMTSKKWLSKLKCCGDNPLTVDEMKALVLMFLKKISDTYVDDQAKWMNKMRSSQEEQGKALEEAMNEYEKNILFNHALKEQQLLHNNKKISEWNETIENAYEAQQEVLRQFEAKKREDKKKMALEKNNELIIAKDYIDKIKEAATDSRYANSKCFVYPASSAPCGACTSAGAIAPYRRFKEPRRKKQYSLCL,not soluble
11,MSLSQIVAEVDGYKVTKEELDTLFHVFWKRITHLSSAKPTQEDKRIFLIDYVADLLILKEAKKMGIEVSEKEINDFIRKYVGRKIKEKSVINAVKAEILVEKLVDKLMKEQELNPSEDILRAYYEFYKREFYRPSSVKLLGIYVKSKKEAERISQILKQGEVPSTEDVKVSKPLWYSIPTLPKYIRRNFRTLSVGEVSKPIKINDGYLVFKILDKKEGHHHHHH,soluble
12,MSLDRYLGFANSNLGRRLVDALGLPRPAPLERWQAGRLRPVEGALVLGGGPLAKQVEAIAPRLTDEVYSFNADNLQAEAWVAGLGPKIKAVVFDASHLSDSDALKQLREFFQPLLRSLAPCAHVLVLGRAPEGLDDPLASVAQRALEGFSRSLAKELRNGATAQLLYVAPGAEDQLEGALRFFLSPKSAFISGQVLRLQGCTSQVEDWTRPLGGRRALVTGAARGIGAAIAETLARDGADVLLLDVPQASKDLDALAARLGGKALPLDICASDAATQLLAALPDGIDIVVHNAGITRDKTLVNMTPEYWDAVLAVNLKAPQVLTQALYDNGALGENARITLLASVSGIAGNRGQANYAASKAGLIGLAQAWAPRLAERGGSINAIAPGFIETHMTAAMPMGLREAGRRLSSLGQGGSPQDVAEAIAWLSQPGSGSVNGQVLRVCGQALMGAEGHHHHHH,soluble
13,MGSDKIHHHHHHMKLLWFAHRDIKHPKAGGAERTIYEVGKRLSKLNIGVNLVTVNPGNLLEYENVDGIIIYRIKGNIRTHLYVRKMIKKINPDVIIDDMGHAVPWFSPWFTDKRVIVFFRHLHAKSLPGQVNFFLAKIITLVEKLYPIIYKNNIFVTESDTSENDLIDLGIKKDRIVRIPPGVDLNLFHTGKKTDNVQLLYFGGLRKYKRPEYAITIYENLYKKIDNLKLIIVGDGILLNEIKDKVKGKNYNIVFTGKLEYDELAKIIRESWVNLHFSVTEGWGYSILEASASGTPSVAFKVPGVVDTIIDGYNGFLVNNINEFTDKILYIIKNEDKFILNSRKFAENFTWEKTADLWYKLLNGN,not soluble
14,MDKNINISVKVWRQKGPKEKGHFETYQLQNISQSASFLEMMDILNEQLIKEHKAPVVFDHDCREGICGMCSLYINGHPHGPDDSITTCQLHMRRFDDGDTITIEPWRSAGFPVIRDLMVDRSAYDKIIQSGGFVSVNTGGIPDANAIPISKKNADEAMDAAACIGCGACAAACKNGSAMLFVSAKVSQLALLPQGRIEAARRAKAMVAKMDELGFGNCTNTRACEMECPKNVSISHIARLNREYIVAKNRD,not soluble
15,RGVLEGTVRIGALPLSRTRLLPSAIAAFLAQHPGITLMTNESPYESLVADMRAGNIDFIIGALRQDEDLPDLCSEALFEEDMLILLRNNHPLLRHPDPRSQLATAQWVLPRANAPARNLLDKAFVTLGLPLPQPTVETGDAAMVR,not soluble
16,MAHHHHHHMPKEVQEKDEFFYFFNHFCFYIINETKQYALSYKMNFAFYLPYGSLGVDVLKNVFDYLHYLDVPTILDIKMNDIGNTVKHYSKFIFHYLRSDSCTANIYMGTHMLRDICLDEECKRHYSTFVLIKTTNPDSHIFQNRLSLDGKEAYVVIADEAQKMAKQLHLEENGEFVGFVVGANCYDEMKKIRELFPDCYILAPGVGAQKGDLRKTLCNGYSKNYERLLINVGRAITKSGNPQQAAREYYHQIKEILAEL,not soluble
17,MLVAERHEKIIALVTEKGSVRVSELSQLFNVTEETIRRDLEKLESERKLQRSHGGAVSIKEDTEAPYFEREIRNVNEKQAVAAQAVTYVTTNDRIILDASTTAWYMAKRLPDVPLTVLTNSMKVAMELAKREKITVITVGGTLLRKSLSFVGPQTNQTLELYHVNKAFISCQGVHAKRGISDSNEMQALVKQKMIDISDHVFLLADHTKFGKQAFSRITSMETIDTIITDSKTSEEQISDFQELEMDVIRALEHHHHHH,soluble
18,MPLRPQRPCRAQGCRSLHRNANGYCDGHADLAAEQAKAWATRKGSGRGGRPWRRKRERILKRDQYLCRCDDCAQLGRIREAHEVDHIVALAHGGTDDDDNLRAINRDCHKAKTQRESKTIKKLEHHHHHH,not soluble
19,MKRGKRLILPLLGTLILTSLFSCGVDRWPEYYPETGRDIWIDSVMRQEYLWYRDMPSPAAPDYFQKPEAFLKKAVASMDNGFSKIDSLLDEPIPSYGFDYTLYKVLDNDTAYNALISYVVPGSPAEEAGLQRGHWIMMMNGDYITKKVESELLQGSTRQLQIGVYKEVVGEDGEVTGGVVPIGETTMPASRSLVDKPVHRFEIIPWNGKKVGYLMYNEFKAGPTTDSQAYNDDLRRAFRDFQTGGVNEFVLDLRYNTGGSLDCAQLLCTMLAPADKMNQLLALLRYSDKRVEANQDLTFNPELIQSGANLNLSTVYVLTTNATRGAAEMVINCLNPYMKVVLIGTKTAGEYVATKPFVHPTDRFILNLVVCNVYNAEEKSDYATGFKPTYEYNEDSYLSTYLPFGNTNETLLNAALKIMSGITDK,not soluble
20,MSLTEKTDQTLMLIDGHSMAFRAFFALPAENFSTSGGQATNAVYGFLSMLSTLLKDEQPTHVAVAFDVGRKTFRTDMFPAYKAQREATPPEFKGQVEILKEVLSTLGITTIEKIDFEADDVIATLSVAAKPLGFKTLIVTGDRDSFQLVNDTTTVLYPMKGVSVLHRFTPEAVEEKYGLTPRQYPEFAALRGDPSDNLPNIPGVGEKTATKWIAQYETLDNLLDHADEIKGKVGASLRERIEQVRMNRKLTEMVKDLELPLGPDDFEMKPVQVAEVAAKFDDLEFGTNLRERVLAVVKAEGSAAPVEEVEAEQVVVDTQSLAQWLPARAGQALALALAGVAKPAAGDTYALAIADTKRHAVLVDVADISAEDEKALATWLASEDPKMLHGAKAAYHMLAGRGFELHGVVHDTAIAAYLLRPGQRTYELADVYQRHLQRQLSTNDNGGQLTLLDAADDQSLVDDVIAILELSEELTKQLQEIQAFELYHDLEIPLSGILARMEAIGEGHHHHHH,soluble
21,MLYVLNKCNGLESVEIIHYNNETTDMKELVENPIIVNCKQVTISTVGGMYGSRELLMNFQIERLISGDSAIGTRFRQGSYEPDHVMSLVNSCFKDRVVNFQDHQGLRLRTDNLAKQILVKKCCRDDFEFEWGVSCRVIPSNLQDIDFEEDWPIWTDIDSDEDCDYSSDDEYEYQYNSDSD,not soluble
22,MGSDKIHHHHHHAQTWENVHFNVDWQMNVPLNSNFADKFSGWGMNFEGKYDLTPYWAIGAFLNFHTNHRYVDRRTIPLTPTASLTTDQQQSAFQLPFGISVSYKLPDNRYVKPYFGVKSGAMYSQNSIYNNLVQWYERPWGFYVSPELGMDIHPVPYQRLGFHVAVYYSYATNKTDILTYSEDGRNSMGVRVGVCF,not soluble
23,MAHHHHHHMDRQVINLEEILPFSYTRDVELVPMYCFEVKKEVAKDALNIMKDYINNQLYDKYNHLKRCRKCTDSVQILIGACNHIPFELSQKLIEKMKQENNNDEFNDIIITKIMVSKYAPITRKQYIEWSTYWPLYFRKPDKDILILTKEEINKYIKLLYISIDIGKQFGTCNSGCIITYNDEIIASSGDNIKNHPLHHAPMLAIEQVSYKLRHIWLNKQTEKNNLQKKMKIIHKQQINNRDSLNDHKHENNKSNHNILIDHIPNDQYLCTNFFAFLSHEPCYMCAMALLHSRIKCVIFDKENKNNGALSSQEKLHCIKNLNHHFKVFKTIRG,not soluble
